Data taken from publication PMC9800250.
Changes are numbered by the printed parent chain. In names and notes the source's numbering stands.

B1: ScGPPC2MT (GPP C2-methyltransferase) (Streptomyces coelicolor A3(2)) (protein)
chain: MTTETTTATATAKIPAPATPYQEDIARYWNNEARPVNLRLGDVDGLYHHHYGIGPVDRAALGDPEHSEYEKKVIAELHRLESAQAEFLMDHLGQAGPDDTLVDAGCGRGGSMVMAHRRFGSRVEGVTLSAAQADFGNRRARELRIDDHVRSRVCNMLDTPFDKGAVTASWNNESTMYVDLHDLFSEHSRFLKVGGRYVTITGCWNPRYGQPSKWVSQINAHFECNIHSRREYLRAMADNRLVPHTIVDLTPDTLPYWELRATSSLVTGIEKAFIESYRDGSFQYVLIAADRV
B2: ScGPPC2MT (GPP C2-methyltransferase) (Streptomyces coelicolor A3(2); F222Y/G202M) (protein)
chain: B1 chain with G202M, F222Y

Experiments:
[1] = substrate: CC(C)=CCC/C(C)=C/COP(=O)(O)OP(=O)(O)O; test: HPLC of S-adenosylhomocysteine formation, steady state; assay type: biochemical, Streptomyces coelicolor; details: 100 μM SAM, 10 mM MgCl2, pH 7.0, 30°C, 20 min, 2 μM enzyme
[2] = substrate: CC(C)=CCOP(=O)(O)OP(=O)(O)O; test: as above; assay type: biochemical, Streptomyces coelicolor; details: 100 μM SAM, 10 mM MgCl2, pH 7.0, 30°C, 20 min, 5 μM enzyme

Protein	Km [1] [µM]	kcat [1]	Km [2] [µM]	kcat [2]
B1	0.88 ± 0.09	(4.90 ± 0.16) × 10^−4 s^−1		
B2			5.33 ± 0.81	(9.59 ± 0.25) × 10^−5 s^−1
